# Reference: patent publication US7897573B2, “Selective VPAC2 receptor peptide agonists” (priority 2005, dated 2011)
# *1 amine or outer side, *2 acyl side, *3 side chain or, on linkers, in order; H or OH if unused. Primed or numbered codes have the meaning given here. [ ]: non-standard residue; d: D form. The star is where a group is joined. Tyr(OMe)(3) = Tyr, methoxy (Y(OMe)), COc1ccc(C[C@H](N[*:1])C(=O)[*:2])cc1; WPEG40K = not defined here; Orn = NCCC[C@H](N)C(=O)O; Abu = CC[C@H](N)C(=O)O; Hexanoyl = CCCCCC(=O)*; Aib = CC(C)(N)C(=O)O
# How the values were obtained:
# [1] = Rat serum stability study (DiscoveRx cAMP read-out on CHO-VPAC2 cells); details: EC50, 4° C./EC50, 37° C., values >100% may represent release of intact peptide from the PEG conjugate; for 24 h stab (%): 24 h in rat serum at 37° C.
# Description: In order to determine the stability of VPAC2 receptor peptide agonists in rat serum, CHO-VPAC2 cells clone #6 (96 well plates/50,000 cells/well and 1 day culture), PBS 1× (Gibco), the peptides for the analysis in a 100 μM stock solution, rat serum from a sacrificed normal Wistar rat, aprotinin, and a DiscoveRx assay kit are obtained. The rat serum is stored at 4° C. until use and is used within two weeks.
# The aliquot is stored with aprotinin at 4° C. The aliquot is stored without aprotinin at 37° C. The aliquots are incubated for 24 or 72 hours.
# On Day 1, after incubation of the aliquots prepared on day 0 for 24 or 72 hours, an incubation buffer containing PBS+1.3 mM CaCl2, 1.2 mM MgCl2, 2 mM glucose, and 0.25 mM IBMX is prepared. A plate with 11 serial 5× dilutions of peptide for the 4° C. and 37° C. aliquot is prepared for each peptide studied. […] The plate(s) are washed with cells twice in incubation buffer. The plates are allowed to hold 50 μL incubation media per well for 15 minutes. 50 μL solution per well is transferred to the cells from the plate prepared with 11 serial 5× dilutions of peptide for the 4° C. and 37° C. aliquot for each peptide studied, using the maximal concentrations that are indicated by the primary screen, in duplicate. This step dilutes the peptide concentration by a factor of two. The cells are incubated at room temperature for 30 minutes. The supernatant is removed. 40 μL/well of the DiscoveRx antibody/extraction buffer is added. The cells are incubated on the shaker (300 rpm) for 1 hour. Normal procedure with the DiscoveRx kit is followed. cAMP standards are included in column 12. EC50 values are determined from the cAMP assay data.
# [2] = biological target: T1, Human VPAC1 Receptor (Homo sapiens, UniProt P32241); assay: Filter binding assay, 125I-labeled VIP, membranes of cells transiently transfected with human VPAC1; details: 125I-labeled VIP tracer
# T1 construct: expressed in transfected cells
# T1 sequence (P32241 31-457): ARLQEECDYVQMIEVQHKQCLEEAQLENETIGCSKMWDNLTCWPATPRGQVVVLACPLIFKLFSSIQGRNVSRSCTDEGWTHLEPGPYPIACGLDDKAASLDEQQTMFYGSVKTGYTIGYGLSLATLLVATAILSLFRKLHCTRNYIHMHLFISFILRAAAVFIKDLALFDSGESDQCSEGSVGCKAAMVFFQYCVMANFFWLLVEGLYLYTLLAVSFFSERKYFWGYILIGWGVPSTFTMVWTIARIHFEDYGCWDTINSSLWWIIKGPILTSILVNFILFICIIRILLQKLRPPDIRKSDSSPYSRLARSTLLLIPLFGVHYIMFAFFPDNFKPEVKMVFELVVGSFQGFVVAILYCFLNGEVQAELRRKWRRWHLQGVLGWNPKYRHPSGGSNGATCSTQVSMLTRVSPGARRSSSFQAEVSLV
# Description: For this assay, the solutions and equipment include:
# Presoak solution: 0.5% Polyethyleneamine in Aqua dest
# Buffer for flushing filter plates: 25 mM HEPES pH 7.4
# Blocking buffer: 25 mM HEPES pH 7.4; 0.2% protease free BSA
# Assay buffer: 25 mM HEPES pH 7.4; 0.5% protease free BSA
# Dilution and assay plate: PS-Microplate, U form
# Filtration Plate Multiscreen FB Opaque Plate; […] Type B Glasfiber filter
# In order to prepare the filter plates, the presoak solution is aspirated by vacuum filtration. The plates are flushed twice with 200 μL flush buffer. 200 μL blocking buffer is added to the filter plate. The filter plate is then incubated with 200 μL presoak solution for 1 hour at room temperature.
# The assay plate is filled with 25 μL assay buffer, 25 μL membranes (2.5 μg) suspended in assay buffer, 25 μL agonist in assay buffer, and 25 μL tracer (about 40000 cpm) in assay buffer. The filled plate is incubated for 1 hour with shaking.
# The transfer from assay plate to filter plate is conducted. The blocking buffer is aspirated by vacuum filtration and washed two times with flush buffer. 90 μL is transferred from the assay plate to the filter plate. The 90 μL transferred from assay plate is aspirated and washed three times with 200 μL flush buffer. The plastic support is removed. It is dried for 1 hour at 60° C. 30 μL Microscint is added. The count is performed.
# [3] = Pharmacokinetic profiles of PEGylated peptides in Fisher 344 rats; assay type: in vivo, rat; details: 100 μg agonist/kg, plasma RIA, mean N = 3
# Description: Pharmacokinetic profiles of PEGylated peptides. Healthy Fisher 344 rats (3 animals per group) were injected with 100 μg agonist/kg (agonist amount based on peptide content and dissolved in PBS buffer). Blood samples were drawn 3, 12, 24, 48, 72, 96 and 168 hour post dosing and the peptide content in plasma was analysed by a radio-immunoassay (RIA) directed against the N-terminus of the peptide. PK parameters were then calculated using a model-independent method (WinNonlin Pro, Pharsight Corp., Mountain View, Calif., USA).
Substance,24 h stab (%) [1],IC50 [2],also measured
"C6-HSDAVFTEQY(OMe)TOrnLRAibQLAAAibOrnYLQSIOrnOrnC(PEG40K)GGPSSGAPPPS-NH2 (HSDAVFTEQYTXLRXQLAAXXYLQSIXXCGGPSSGAPPPS; C6 acyl, PEG40K on Cys, C-terminal amide; Synthetic sequence PEGylated VPAC2 receptor agonist) [Agonist P560]",192%,,
"C6-HSDAVFTEQY(OMe)TOrnLRAibQLAAbuAibOrnYLQAibC(PEG40K)OrnOrnGGPSSGAPPPS-NH2 (HSDAVFTEQYTXLRXQLAXXXYLQXCXXGGPSSGAPPPS; C6 acyl, PEG40K on Cys, C-terminal amide; Synthetic sequence PEGylated VPAC2 receptor agonist) [Agonist P541]",,> 25000 nM,
"C6-HSDAVFTEQY(OMe)TOrnLRAibQLAAbuAibOrnYLQAibIOrnOrnGGPSSGAPPPC(PEG20K)C(PEG20K)-NH2 (HSDAVFTEQYTXLRXQLAXXXYLQXIXXGGPSSGAPPPCC; C6 acyl, two PEG20K, C-terminal amide; Synthetic sequence PEGylated VPAC2 receptor agonist) [Agonist P517]",,> 25000 nM,
"C6-HSDAVFTEQY(OMe)TOrnLRAibQLAAbuAibOrnYLQSC(PEG40K)OrnOrnGGPSSGAPPPS-NH2 (HSDAVFTEQYTXLRXQLAXXXYLQSCXXGGPSSGAPPPS; C6 acyl, PEG40K on Cys, C-terminal amide; Synthetic sequence PEGylated VPAC2 receptor agonist) [Agonist P543]",119%,,
"C6-HSDAVFTEQY(OMe)TOrnLRAibQLAAbuAibOrnYLQSIOrnOrnC(PEG4OK)GGPSSGAPPPS-NH2 (HSDAVFTEQYTXLRXQLAXXXYLQSIXXCGGPSSGAPPPS; C6 acyl, PEG40K on Cys, C-terminal amide; Synthetic sequence PEGylated VPAC2 receptor agonist) [Agonist P566]",152%,,
"C6-HSDAVFTEQY(OMe)TOrnLRAibQLAAbuAibOrnYLQSIOrnOrnGGPSSGAPPPC(PEG20K)C(PEG20K)-NH2 (HSDAVFTEQYTXLRXQLAXXXYLQSIXXGGPSSGAPPPCC; C6 acyl, two PEG20K, C-terminal amide; Synthetic sequence PEGylated VPAC2 receptor agonist) [Agonist P523]",,,72 h stab (%) ([1]; 72 h in rat serum at 37° C.): 281%
C6-HSDAVFTEQY(OMe)TOrnLRAibQVAAAibC(PEG40K)YLQSIOrnOrnGGPSSGAPPPS-NH2 (HSDAVFTEQYTXLRXQVAAXCYLQSIXXGGPSSGAPPPS; C6 acyl; PEG40K; non-natural residues; amide; Synthetic sequence PEGylated VPAC2 receptor peptide agonist) [Agonist P460],,> 25000 nM,
C6-HSDAVFTEQY(OMe)TOrnLRAibQVAAAibK(W-PEG40K)YLQSIOrnOrnGGPSSGAPPPS-NH2 (HSDAVFTEQYTXLRXQVAAXXYLQSIXXGGPSSGAPPPS; C6 acyl; PEG40K; non-natural residues; amide; Synthetic sequence PEGylated VPAC2 receptor peptide agonist) [Agonist P410],,> 25000 nM,
"C6-HSDAVFTEQY(OMe)TOrnLRAibQVAAAibOrnYLQAibIOrnOrnGGPSSGAPPPC(PEG40K)-NH2 (HSDAVFTEQYTXLRXQVAAXXYLQXIXXGGPSSGAPPPC; C6 acyl, PEG40K on Cys, C-terminal amide; Synthetic sequence PEGylated VPAC2 receptor agonist) [Agonist P509]",,> 25000 nM,
"C6-HSDAVFTEQY(OMe)TOrnLRAibQVAAAibOrnYLQSC(PEG20K)OrnOrnGGPSSGAPPPC(PEG20K)-NH2 (HSDAVFTEQYTXLRXQVAAXXYLQSCXXGGPSSGAPPPC; C6 acyl, two PEG20K, C-terminal amide; Synthetic sequence PEGylated VPAC2 receptor agonist) [Agonist P503]",174%,,
"C6-HSDAVFTEQY(OMe)TOrnLRAibQVAAAibOrnYLQSIOrnK(CO(CH2)2SPEG20K)OrnGGPSSGAPPPC(PEG20K)-NH2 (HSDAVFTEQYTXLRXQVAAXXYLQSIXXXGGPSSGAPPPC; C6 acyl, two PEG20K, C-terminal amide; Synthetic sequence PEGylated VPAC2 receptor agonist) [Agonist P499]",,> 25000 nM,AUC0-last [3]: 6650 ng·h/mL; Cl/F [3]: 0.25 mL/min/kg; Cmax [3]: 132 ng/mL; Tmax [3]: 24 h; T½ [3]: 25 h
C6-HSDAVFTEQY(OMe)TOrnLRAibQVAAAibOrnYLQSIOrnK(WPEG40K)OrnGGPSSGAPPPS-NH2 (HSDAVFTEQYTXLRXQVAAXXYLQSIXXXGGPSSGAPPPS; C6 acyl; PEG40K; non-natural residues; amide; Synthetic sequence PEGylated VPAC2 receptor peptide agonist) [Agonist P454],,> 25000 nM,
"C6-HSDAVFTEQY(OMe)TOrnLRAibQVAAAibOrnYLQSK(WPEG40K)OrnOrnGGPSSGAPPPS-NH2 (HSDAVFTEQYTXLRXQVAAXXYLQSXXXGGPSSGAPPPS; C6 acyl, PEG40K on Lys, C-terminal amide; Synthetic sequence PEGylated VPAC2 receptor agonist) [Agonist P535]",,> 25000 nM,
"C6-HSDAVFTEQY(OMe)TOrnLRAibQVAAK(CO(CH2)2SPEG40K)OrnYLQSIOrnOrnGGPSSGAPPPS-NH2 (HSDAVFTEQYTXLRXQVAAXXYLQSIXXGGPSSGAPPPS; N-terminal C6 acyl, PEG40K on Lys, C-terminal amide; Synthetic sequence PEGylated VPAC2 receptor agonist) [Agonist P475]",61%,,
"C6-HSDAVFTEQY(OMe)TOrnLRAibQVAK(CO(CH2)2SPEG20K)AibOrnYLQSIOrnOrnGGPSSGAPPPC(PEG20K)-NH2 (HSDAVFTEQYTXLRXQVAXXXYLQSIXXGGPSSGAPPPC; C6 acyl, two PEG20K, C-terminal amide; Synthetic sequence PEGylated VPAC2 receptor agonist) [Agonist P492]",131%,,
C6-HSDAVFTEQY(OMe)TOrnLRAibQVC(PEG40K)AAibOrnyLQSIOrnOrnGGPSSGAPPPS-NH2 [Agonist P478],34%,,
"C6-HSDAVFTEQY(OMe)TOrnLRK(CO(CH2)2SPEG40K)QVAAAibOrnYLQSIOrnOrnGGPSSGAPPPS-NH2 (HSDAVFTEQYTXLRXQVAAXXYLQSIXXGGPSSGAPPPS; N-terminal C6 acyl, PEG40K on Lys, C-terminal amide; Synthetic sequence PEGylated VPAC2 receptor agonist) [Agonist P485]",65%,,
C6-HSDAVFTEQY(OMe)TOrnLRK(WPEG40K)QLAAbuAibOrnYLQAibIOrnOrnGGPSSGAPPPS-NH2 (Hexanoyl-HSDAVFTEQ[Tyr(OMe)(3)]T[Orn]LRK(WPEG40K)QLA[Abu][Aib][Orn]YLQ[Aib]I[Orn][Orn]GGPSSGAPPPS-NH2; reading uncertain) [Agonist P557],131%,,
